Source: patent publication US20080194482A1, “Selective Apac2 Receptor Peptide Agonists” (priority 2005, published 2008)
Square brackets hold non-standard residues; d marks the D form. Ends that are not written are not given here. Peptide text beside a SMILES is read from it. * marks the point of attachment. Orn = NCCC[C@H](N)C(=O)O; Hexanoyl = CCCCCC(=O)*; Aib = CC(C)(N)C(=O)O

B1: VPAC2 receptor peptide agonist P370 (peptide)
peptide: Hexanoyl-HSDAVFTDNYTRLLAKLALQKYLQSI[Orn]N[Orn]GGPSSGAPPPS
B2: VPAC2 receptor peptide agonist P369 (peptide)
peptide: Hexanoyl-HSDAVFTDNYTFLR[Aib]QVAA[Aib]KYLQSI[Orn]N[Orn]GGPSSGAPPPS
B3: VPAC2 receptor peptide agonist P394 (peptide)
peptide: HSDAVFTDQYTXLRXQLAAXXYLQSIXXGGPSSGAPPPS
modifications: N-terminal hexanoyl (C6); Tyr(OMe) at 10; Orn at 12, 21, 27 and 28; Aib at 15 and 20

Legend:
[1] = Rat serum stability (activity remaining, CHO-VPAC2 DiscoveRx read-out); format: in vitro ADME
Protocol: The rat serum is stored at 4° C. until use and is used within two weeks. […] The aliquot is stored with aprotinin at 4° C. The aliquot is stored without aprotinin at 37° C. The aliquots are incubated overnight. […] The plate(s) are washed with cells twice in incubation buffer. The plates are allowed to hold 50 μL incubation media per well for 15 minutes. 50 μL solution per well is transferred to the cells from the plate prepared with 11 serial 5× dilutions of peptide for the 4° C. and 37° C. aliquot for each peptide studied, using the maximal concentrations that are indicated by the primary screen, in duplicate. This step dilutes the peptide concentration by a factor of two. The cells are incubated at room temperature for 30 minutes. […] The cells are incubated on the shaker (300 rpm) for 1 hour. Normal procedure with the DiscoveRx kit is followed. cAMP standards are included in column 12. EC50 values are determined from the cAMP assay data.

human VPAC1 = biological target: T1, human VPAC1 (Homo sapiens, UniProt P32241); test: Filter binding assay, 125I-labeled VIP tracer, VPAC1 membranes; conditions: read-out: Human VPAC1 Receptor Binding (IC50; nM)
T1 construct: expressed in transfected cells
T1 sequence (P32241 31-457): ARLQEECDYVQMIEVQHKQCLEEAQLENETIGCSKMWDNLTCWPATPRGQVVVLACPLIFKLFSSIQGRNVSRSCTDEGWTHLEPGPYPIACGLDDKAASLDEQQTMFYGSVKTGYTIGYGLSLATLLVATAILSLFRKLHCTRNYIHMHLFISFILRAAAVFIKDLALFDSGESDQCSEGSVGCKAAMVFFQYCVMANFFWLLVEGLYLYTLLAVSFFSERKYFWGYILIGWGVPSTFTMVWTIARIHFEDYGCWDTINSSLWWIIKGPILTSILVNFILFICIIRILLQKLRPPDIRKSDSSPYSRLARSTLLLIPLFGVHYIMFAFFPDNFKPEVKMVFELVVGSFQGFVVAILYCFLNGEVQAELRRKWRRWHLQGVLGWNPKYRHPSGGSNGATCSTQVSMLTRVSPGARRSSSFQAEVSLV

human PAC1 = biological target: T2, human PAC1 (Homo sapiens, UniProt P41586); test: Filter binding assay, 125I-labeled PACAP-27 tracer, PAC1 membranes; conditions: read-out: Human PAC1 Receptor Binding (IC50; nM)
T2 construct: expressed in transfected cells
T2 sequence (P41586 21-468): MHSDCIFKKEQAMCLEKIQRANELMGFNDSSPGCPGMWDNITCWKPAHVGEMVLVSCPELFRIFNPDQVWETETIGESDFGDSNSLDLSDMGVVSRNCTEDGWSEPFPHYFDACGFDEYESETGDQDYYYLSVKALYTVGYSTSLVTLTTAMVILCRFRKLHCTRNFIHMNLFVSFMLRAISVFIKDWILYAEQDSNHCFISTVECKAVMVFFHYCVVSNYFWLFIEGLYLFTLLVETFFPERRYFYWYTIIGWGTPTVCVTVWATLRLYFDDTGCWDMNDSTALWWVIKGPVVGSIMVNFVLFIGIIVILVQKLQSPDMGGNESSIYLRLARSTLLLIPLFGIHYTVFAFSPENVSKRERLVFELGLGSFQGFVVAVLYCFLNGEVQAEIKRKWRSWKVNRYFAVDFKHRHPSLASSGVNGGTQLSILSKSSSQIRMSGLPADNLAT
Protocol: For this assay, the solutions and equipment include:
Presoak solution: 0.5% Polyethyleneamine in Aqua dest
Buffer for flushing filter plates: 25 mM HEPES pH 7.4
Blocking buffer: 25 mM HEPES pH 7.4; 0.2% protease free BSA
Assay buffer: 25 mM HEPES pH 7.4; 0.5% protease free BSA
Dilution and assay plate: PS-Microplate, U form
Filtration Plate: Multiscreen FB Opaque Plate; 1.0 μM Type B Glasfiber filter
In order to prepare the filter plates, the presoak solution is aspirated by vacuum filtration. The plates are flushed twice with 200 μL flush buffer. 200 μL blocking buffer is added to the filter plate. The filter plate is then incubated with 200 μL presoak solution for 1 hour at room temperature.
The assay plate is filled with 25 μL assay buffer, 25 μL membranes (2.5 μg) suspended in assay buffer, 25 μL compound (agonist) in assay buffer, and 25 μL tracer (about 40000 cpm) in assay buffer. The filled plate is incubated for 1 hour with shaking.
(§1) The transfer from assay plate to filter plate is conducted. The blocking buffer is aspirated by vacuum filtration and washed two times with flush buffer. 90 μL is transferred from the assay plate to the filter plate. The 90 μL transferred from assay plate is aspirated and washed three times with 200 μL flush buffer. The plastic support is removed. It is dried for 1 hour at 60° C. 30 μL Microscint is added. The count is performed.

human VPAC2 receptor [2] = biological target: T3, human VPAC2 receptor (human, UniProt P41587 24-438); test: cell-based or functional assay
T3 sequence (looked up): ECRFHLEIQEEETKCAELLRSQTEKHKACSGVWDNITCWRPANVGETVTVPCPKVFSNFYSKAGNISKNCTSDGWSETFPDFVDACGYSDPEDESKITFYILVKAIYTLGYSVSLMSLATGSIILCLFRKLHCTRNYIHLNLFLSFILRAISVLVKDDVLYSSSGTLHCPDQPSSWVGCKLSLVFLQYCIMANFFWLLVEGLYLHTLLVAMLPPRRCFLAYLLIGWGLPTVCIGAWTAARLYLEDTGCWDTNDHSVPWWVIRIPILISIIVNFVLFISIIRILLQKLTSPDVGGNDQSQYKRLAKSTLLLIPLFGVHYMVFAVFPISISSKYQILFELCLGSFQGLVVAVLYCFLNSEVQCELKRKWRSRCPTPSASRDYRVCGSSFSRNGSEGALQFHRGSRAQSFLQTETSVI

rat VPAC2 receptor = biological target: T4, rat VPAC2 receptor (rat, UniProt P35000 23-437); test: cell-based or functional assay
T4 sequence (looked up): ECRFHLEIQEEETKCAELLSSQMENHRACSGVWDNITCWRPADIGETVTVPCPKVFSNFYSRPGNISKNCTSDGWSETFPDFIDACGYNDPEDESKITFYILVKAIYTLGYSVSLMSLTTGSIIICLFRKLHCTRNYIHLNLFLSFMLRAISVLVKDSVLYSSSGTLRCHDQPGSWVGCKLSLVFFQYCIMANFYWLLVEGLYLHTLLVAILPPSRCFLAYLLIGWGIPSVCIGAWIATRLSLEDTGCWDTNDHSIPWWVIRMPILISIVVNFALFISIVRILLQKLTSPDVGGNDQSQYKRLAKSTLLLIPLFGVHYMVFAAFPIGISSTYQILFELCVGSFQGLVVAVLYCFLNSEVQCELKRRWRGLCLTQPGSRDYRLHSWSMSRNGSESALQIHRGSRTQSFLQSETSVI

rat VPAC1 receptor = biological target: T5, rat VPAC1 receptor (rat, UniProt P30083 31-459); test: cell-based or functional assay
T5 sequence (looked up): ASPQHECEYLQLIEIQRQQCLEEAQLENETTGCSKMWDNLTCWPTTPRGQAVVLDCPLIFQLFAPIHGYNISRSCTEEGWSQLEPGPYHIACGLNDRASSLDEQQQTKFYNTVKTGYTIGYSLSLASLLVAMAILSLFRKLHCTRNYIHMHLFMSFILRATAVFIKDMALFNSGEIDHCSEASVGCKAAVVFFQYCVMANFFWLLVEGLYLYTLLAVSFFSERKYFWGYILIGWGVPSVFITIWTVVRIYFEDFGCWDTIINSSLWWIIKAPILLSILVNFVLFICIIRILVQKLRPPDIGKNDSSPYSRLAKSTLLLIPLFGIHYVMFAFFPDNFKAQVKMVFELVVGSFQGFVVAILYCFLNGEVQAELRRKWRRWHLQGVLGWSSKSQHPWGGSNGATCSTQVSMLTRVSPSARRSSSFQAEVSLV

human VPAC2 receptor [3] = biological target: T3, human VPAC2 receptor; test: filter binding, human VPAC2 membranes, competition with 125I-VIP;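 also: assay plate incubated 1 h with shaking, then filtered, with filter-retained counts measured after adding scintillant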
Protocol: The filled plate is incubated for 1 hour with shaking.
as §1

Molecule | Rat Serum Stability (estimated purity in % after overnight incub.) [1] | IC50 (human VPAC1) | IC50 (human PAC1) | Human VPAC2 Receptor: Alpha Screen (EC50; nM), cAMP generation (human VPAC2 receptor [2]) | Rat VPAC2 Receptor: DiscoveRx (EC50; nM), cAMP generation (rat VPAC2 receptor) | Rat VPAC1 Receptor: DiscoveRx (EC50; nM), cAMP generation (rat VPAC1 receptor) | IC50 (human VPAC2 receptor [3])
CCCCCC(=O)N[C@@H](Cc1c[nH]cn1)C(=O)N[C@@H](CO)C(=O)N[C@@H](CC(=O)O)C(=O)N[C@@H](C)C(=O)N[C@H](C(=O)N[C@@H](Cc1ccccc1)C(=O)N[C@H](C(=O)N[C@@H](CC(=O)O)C(=O)N[C@@H](CC(N)=O)C(=O)N[C@@H](Cc1ccc(OC)cc1)C(=O)N[C@H](C(=O)N[C@@H](CCCNC(=N)N)C(=O)N[C@@H](CC(C)C)C(=O)N[C@@H](CCCNC(=N)N)C(=O)NC(C)(C)C(=O)N[C@@H](CCC(N)=O)C(=O)N[C@H](C(=O)N[C@@H](C)C(=O)N[C@@H](C)C(=O)NC(C)(C)C(=O)N[C@@H](CCCCN)C(=O)N[C@@H](Cc1ccc(O)cc1)C(=O)N[C@@H](CC(C)C)C(=O)N[C@@H](CCC(N)=O)C(=O)N[C@@H](CO)C(=O)N[C@H](C(=O)N[C@@H](CCCCN)C(=O)N[C@@H](CC(N)=O)C(=O)N[C@@H](CCCCN)C(=O)N[C@@H](CCCNC(=N)N)C(=O)N[C@@H](Cc1ccc(O)cc1)C(=O)NCC(=O)NCC(=O)N1CCC[C@H]1C(=O)N[C@@H](CO)C(=O)N[C@@H](CO)C(=O)NCC(=O)N[C@@H](C)C(=O)N1CCC[C@H]1C(=O)N1CCC[C@H]1C(=O)N1CCC[C@H]1C(=O)N[C@@H](CO)C(=O)O)[C@@H](C)CC)C(C)C)[C@@H](C)O)[C@@H](C)O)C(C)C [Agonist P358] | 13.43% |  |  |  |  |  | 
CCCCCC(=O)N[C@@H](Cc1c[nH]cn1)C(=O)N[C@@H](CO)C(=O)N[C@@H](CCC(=O)O)C(=O)N[C@@H](C)C(=O)N[C@H](C(=O)N[C@@H](Cc1ccccc1)C(=O)N[C@H](C(=O)N[C@@H](CCC(=O)O)C(=O)N[C@@H](CC(N)=O)C(=O)N[C@@H](Cc1ccc(O)cc1)C(=O)N[C@H](C(=O)N[C@@H](CCCN)C(=O)N[C@@H](CC(C)C)C(=O)N[C@@H](CCCNC(=N)N)C(=O)NC(C)(C)C(=O)N[C@@H](CCC(N)=O)C(=O)N[C@H](C(=O)N[C@@H](C)C(=O)N[C@@H](C)C(=O)NC(C)(C)C(=O)N[C@@H](CCCCN)C(=O)N[C@@H](Cc1ccc(O)cc1)C(=O)N[C@@H](CC(C)C)C(=O)N[C@@H](CCC(N)=O)C(=O)N[C@@H](CO)C(=O)N[C@H](C(=O)N[C@@H](CCCN)C(=O)N[C@@H](CC(N)=O)C(=O)N[C@@H](CCCN)C(=O)NCC(=O)NCC(=O)N1CCC[C@H]1C(=O)N[C@@H](CO)C(=O)N[C@@H](CO)C(=O)NCC(=O)N[C@@H](C)C(=O)N1CCC[C@H]1C(=O)N1CCC[C@H]1C(=O)N1CCC[C@H]1C(=O)N[C@@H](CO)C(=O)O)[C@@H](C)CC)C(C)C)[C@@H](C)O)[C@@H](C)O)C(C)C [Agonist P362] (Hexanoyl-HSEAVFTENYT[Orn]LR[Aib]QVAA[Aib]KYLQSI[Orn]N[Orn]GGPSSGAPPPS-OH; C-terminus assumed) | 82.77% | > 3000 nM | > 25000 nM |  |  |  | 
CCCCCC(=O)N[C@@H](Cc1c[nH]cn1)C(=O)N[C@@H](CO)C(=O)N[C@@H](CC(=O)O)C(=O)N[C@@H](C)C(=O)N[C@H](C(=O)N[C@@H](Cc1ccccc1)C(=O)N[C@H](C(=O)N[C@@H](CC(=O)O)C(=O)N[C@@H](CC(N)=O)C(=O)N[C@@H](Cc1ccc(O)cc1)C(=O)N[C@H](C(=O)N[C@@H](CCC(N)=O)C(=O)N[C@@H](CC(C)C)C(=O)N[C@@H](CCCNC(=N)N)C(=O)NC(C)(C)C(=O)N[C@@H](CCC(N)=O)C(=O)N[C@H](C(=O)N[C@@H](C)C(=O)N[C@@H](C)C(=O)NC(C)(C)C(=O)N[C@@H](CCCCN)C(=O)N[C@@H](Cc1ccc(O)cc1)C(=O)N[C@@H](CC(C)C)C(=O)N[C@@H](CCC(N)=O)C(=O)N[C@@H](CO)C(=O)N[C@H](C(=O)N[C@@H](CCCN)C(=O)N[C@@H](CC(N)=O)C(=O)N[C@@H](CCCN)C(=O)NCC(=O)NCC(=O)N1CCC[C@H]1C(=O)N[C@@H](CO)C(=O)N[C@@H](CO)C(=O)NCC(=O)N[C@@H](C)C(=O)N1CCC[C@H]1C(=O)N1CCC[C@H]1C(=O)N1CCC[C@H]1C(=O)N[C@@H](CO)C(=O)O)[C@@H](C)CC)C(C)C)[C@@H](C)O)[C@@H](C)O)C(C)C [Agonist P368] (Hexanoyl-HSDAVFTDNYTQLR[Aib]QVAA[Aib]KYLQSI[Orn]N[Orn]GGPSSGAPPPS-OH; C-terminus assumed) | 99.82% | > 3000 nM | > 25000 nM |  |  |  | 
B1 |  |  |  | 0.23 nM | 0.05 nM | 0.05 nM | 0.8 nM
B2 |  |  |  | 10.5 nM | 8.09 nM | 130 nM | 37.3 nM
B3 |  |  |  | 0.11 nM | 0.03 nM | 0.48 nM | 0.41 nM
